Some results are limits rather than exact numbers.

In this test the target is T1, GST-SMAD4 (full-length, WT) (human, UniProt Q13485 1-552).
T1 construct: SMAD4, human, Human ORFeome V8.1 clone; Gateway mammalian GST expression vector (Li et al., 2017); details in the Supplementary material; also called GST-tagged SMAD4 FL; GST-tagged SMAD4 WT; source: HEK293T, transfected, in lysate
T1 sequence (looked up): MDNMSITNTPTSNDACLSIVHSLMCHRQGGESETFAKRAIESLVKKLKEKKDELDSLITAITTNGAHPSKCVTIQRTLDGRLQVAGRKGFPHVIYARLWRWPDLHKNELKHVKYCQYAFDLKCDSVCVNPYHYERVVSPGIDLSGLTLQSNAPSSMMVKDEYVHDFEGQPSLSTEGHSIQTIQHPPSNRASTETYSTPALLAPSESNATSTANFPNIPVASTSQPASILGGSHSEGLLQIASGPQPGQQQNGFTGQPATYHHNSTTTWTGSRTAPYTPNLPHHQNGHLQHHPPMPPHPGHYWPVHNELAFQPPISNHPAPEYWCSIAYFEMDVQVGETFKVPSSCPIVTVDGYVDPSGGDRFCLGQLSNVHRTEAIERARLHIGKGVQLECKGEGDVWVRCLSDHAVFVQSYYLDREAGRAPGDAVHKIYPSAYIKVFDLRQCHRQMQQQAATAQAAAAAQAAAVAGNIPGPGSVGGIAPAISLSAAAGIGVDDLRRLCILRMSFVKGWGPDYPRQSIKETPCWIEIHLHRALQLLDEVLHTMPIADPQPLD
As to the kind of experiment: FRET or BRET; TR-FRET of single pairs: GST-SMAD4 (WT, domain truncations, truncation mutants) with VF-tagged partners; signal as fold change over empty vector controls. The note with it: partners not purified. On the technique in general: BRET reads energy transfer from a luciferase to a nearby fluorophore.

B1: Venus-Flag-tagged NFATc1 (VF-NFATc1), full-length WT (natural protein, human, UniProt O95644-2 1-716, looked up)
chain: MPSTSFPVPSKFPLGPAAAVFGRGETLGPAPRAGGTMKSAEEEHYGYASSNVSPALPLPTAHSTLPAPCHNLQTSTPGIIPPADHPSGYGAALDGGPAGYFLSSGHTRPDGAPALESPRIEITSCLGLYHNNNQFFHDVEVEDVLPSSKRSPSTATLSLPSLEAYRDPSCLSPASSLSSRSCNSEASSYESNYSYPYASPQTSPWQSPCVSPKTTDPEEGFPRGLGACTLLGSPRHSPSTSPRASVTEESWLGARSSRPASPCNKRKYSLNGRQPPYSPHHSPTPSPHGSPRVSVTDDSWLGNTTQYTSSAIVAAINALTTDSSLDLGDGVPVKSRKTTLEQPPSVALKVEPVGEDLGSPPPPADFAPEDYSSFQHIRKGGFCDQYLAVPQHPYQWAKPKPLSPTSYMSPTLPALDWQLPSHSGPYELRIEVQPKSHHRAHYETEGSRGAVKASAGGHPIVQLHGYLENEPLMLQLFIGTADDRLLRPHAFYQVHRITGKTVSTTSHEAILSNTKVLEIPLLPENSMRAVIDCAGILKLRNSDIELRKGETDIGRKNTRVRLVFRVHVPQPSGRTLSLQVASNPIECSQRSAQELPLVEKQSTDSYPVVGGKKMVLSGHNFLQDSKVIFVEKAPDGHHVWEMEAKTDRDLCKPNSLVVEIPPFRNQRITSPVHVSFYVCNGKRKRSQYQRFTYLPANGNAIFLTVSREHERVGCFF
notes: NFATc1, human, Human ORFeome V8.1 clone; also called VF-tagged NFATc1 FL; VF-tagged NFATc1 WT; source: HEK293T, transfected, in lysate; in live cells for the BRET screen
For the molecule B1, the “TR-FRET PPI signal, fold-of-change (FOC) over negative controls” value was more than 3 fold.
